± gives the uncertainty stated by the source.

The source of these data is the Human Domainome abundance scans (Beltran et al. 2025).

B1: Intersectin-1, residues 909 to 971; numbered along this chain, Q15811 (parent)
chain: QGEKVEGLQAQALYPWRAKKDNHLNFNKNDVITVLEQQDMWWFGEVQGQKGWFPKSYVKLISG

In this data set the parent is B1. The data set can be described thus: abundance fitness (aPCA) (normalised: wild type 0, dead -1); higher = more abundant; growth selection in yeast, the domain comes from the species named. The following applies: Homo sapiens.
For the variant QGEKVEGLQAQALYPWRAKKDNHLNFNKNDVITVLEQQDMWWFGEVQGQKGWFPKSRVKLISG [Y57R], the abundance fitness is -0.013 ± 0.08. Under QGEKVEGLQAQALYPWRAKKDNHLNFNKNDVITVLEQQDMWWFGEVQGQKGWFPKSHVKLISG [Y57H] stands -0.238 ± 0.18.

In the case of QGEKVEGLQAQALYPWRAKKDNHLNFNKNDVITVLEQQDMWWFGEVQGQKGWFPKSVVKLISG [Y57V], the abundance fitness was -0.084 ± 0.11.

In the case of QGEKVEGLQAQALYPWRAKKDNHLNFNKNDVITVLEQQDMWWFGEVQGQKGWFPKSIVKLISG [Y57I], the abundance fitness is -0.289 ± 0.28. Under QGEKVEGLQAQALYPWRAKKDNHLNFNKNDVITVLEQQDMWWFGEVQGQKGWFPKSTVKLISG [Y57T] stands -0.013 ± 0.16; under QGEKVEGLQAQALYPWRAKKDNHLNFNKNDVITVLEQQDMWWFGEVQGQKGWFPKSPVKLISG [Y57P], -1.02 ± 0.4.

Consider QGEKVEGLQAQALYPWRAKKDNHLNFNKNDVITVLEQQDMWWFGEVQGQKGWFPKSCVKLISG [Y57C], for which the abundance fitness is -0.153 ± 0.14. Then QGEKVEGLQAQALYPWRAKKDNHLNFNKNDVITVLEQQDMWWFGEVQGQKGWFPKSNVKLISG [Y57N], with 0.212 ± 0.41; and QGEKVEGLQAQALYPWRAKKDNHLNFNKNDVITVLEQQDMWWFGEVQGQKGWFPKSWVKLISG [Y57W], with -0.258 ± 0.36. Then QGEKVEGLQAQALYPWRAKKDNHLNFNKNDVITVLEQQDMWWFGEVQGQKGWFPKSSVKLISG [Y57S], with -0.308 ± 0.14; and QGEKVEGLQAQALYPWRAKKDNHLNFNKNDVITVLEQQDMWWFGEVQGQKGWFCKSYVKLISG [P54C], with -0.765 ± 0.34; and QGEKVEGLQAQALYPWRAKKDNHLNFNKNDVITVLEQQDMWWFGEVQGQKGWFDKSYVKLISG [P54D], with -0.721 ± 0.27. Under QGEKVEGLQAQALYPWRAKKDNHLNFNKNDVITVLEQQDMWWFGEVQGQKGWFWKSYVKLISG [P54W] stands -0.437 ± 0.18; under QGEKVEGLQAQALYPWRAKKDNHLNFNKNDVITVLEQQDMWWFGEVQGQKGWFKKSYVKLISG [P54K], -0.354 ± 0.22.

Regarding QGEKVEGLQAQALYPWRAKKDNHLNFNKNDVITVLEQQDMWWFGEVQGQKGWFGKSYVKLISG [P54G], the abundance fitness was -1.18 ± 0.41. Under QGEKVEGLQAQALYPWRAKKDNHLNFNKNDVITVLEQQDMWWFGEVQGQKGWFRKSYVKLISG [P54R] stands -0.714 ± 0.12. Take QGEKVEGLQAQALYPWRAKKDNHLNFNKNDVITVLEQQDMWWFGEVQGQKGWFQKSYVKLISG [P54Q]: the abundance fitness was -0.688 ± 0.3. Then QGEKVEGLQAQALYPWRAKKDNHLNFNKNDVITVLEQQDMWWFGEVQGQKGWFFKSYVKLISG [P54F], with -0.8 ± 0.46; and QGEKVEGLQAQALYPWRAKKDNHLNFNKNDVITVLEQQDMWWFGEVQGQKGWFVKSYVKLISG [P54V], with -0.499 ± 0.12; and QGEKVEGLQAQALYPWRAKKDNHLNFNKNDVITVLEQQDMWWFGEVQGQKGWFMKSYVKLISG [P54M], with -0.25 ± 0.11. Under QGEKVEGLQAQALYPWRAKKDNHLNFNKNDVITVLEQQDMWWFGEVQGQKGWFLKSYVKLISG [P54L] stands -0.215 ± 0.11; under QGEKVEGLQAQALYPWRAKKDNHLNFNKNDVITVLEQQDMWWFGEVQGQKGWFEKSYVKLISG [P54E], -0.474 ± 0.14. Under QGEKVEGLQAQALYPWRAKKDNHLNFNKNDVITVLEQQDMWWFGEVQGQKGWFSKSYVKLISG [P54S] stands -0.88 ± 0.27; under QGEKVEGLQAQALYPWRAKKDNHLNFNKNDVITVLEQQDMWWFGEVQGQKGKFPKSYVKLISG [W52K], -0.375 ± 0.45; under QGEKVEGLQAQALYPWRAKKDNHLNFNKNDVITVLEQQDMWWFGEVQGQKGVFPKSYVKLISG [W52V], -0.944 ± 0.25. For the variant QGEKVEGLQAQALYPWRAKKDNHLNFNKNDVITVLEQQDMWWFGEVQGQKGTFPKSYVKLISG [W52T], the abundance fitness was -0.89 ± 0.28. As to QGEKVEGLQAQALYPWRAKKDNHLNFNKNDVITVLEQQDMWWFGEVQGQKGSFPKSYVKLISG [W52S], the abundance fitness is -1.15 ± 0.41. With QGEKVEGLQAQALYPWRAKKDNHLNFNKNDVITVLEQQDMWWFGEVQGQKGRFPKSYVKLISG [W52R], the abundance fitness is -1 ± 0.21.

As to QGEKVEGLQAQALYPWRAKKDNHLNFNKNDVITVLEQQDMWWFGEVQGQKGQFPKSYVKLISG [W52Q], the abundance fitness was -0.776 ± 0.46. Under QGEKVEGLQAQALYPWRAKKDNHLNFNKNDVITVLEQQDMWWFGEVQGQKGPFPKSYVKLISG [W52P] stands -0.721 ± 0.27. Under QGEKVEGLQAQALYPWRAKKDNHLNFNKNDVITVLEQQDMWWFGEVQGQKGMFPKSYVKLISG [W52M] stands -0.804 ± 0.46; under QGEKVEGLQAQALYPWRAKKDNHLNFNKNDVITVLEQQDMWWFGEVQGQKGWKPKSYVKLISG [F53K], -0.962 ± 0.41; under QGEKVEGLQAQALYPWRAKKDNHLNFNKNDVITVLEQQDMWWFGEVQGQKGWSPKSYVKLISG [F53S], -0.932 ± 0.18. As to QGEKVEGLQAQALYPWRAKKDNHLNFNKNDVITVLEQQDMWWFGEVQGQKGWLPKSYVKLISG [F53L], the abundance fitness is -0.701 ± 0.13.

With QGEKVEGLQAQALYPWRAKKDNHLNFNKNDVITVLEQQDMWWFGEVQGQKGWEPKSYVKLISG [F53E], the abundance fitness is -0.858 ± 0.46. Under QGEKVEGLQAQALYPWRAKKDNHLNFNKNDVITVLEQQDMWWFGEVQGQKGWWPKSYVKLISG [F53W] stands -0.798 ± 0.18. Then QGEKVEGLQAQALYPWRAKKDNHLNFNKNDVITVLEQQDMWWFGEVQGQKGWVPKSYVKLISG [F53V], with -0.677 ± 0.29.

As to QGEKVEGLQAQALYPWRAKKDNHLNFNKNDVITVLEQQDMWWFGEVQGQKGWQPKSYVKLISG [F53Q], the abundance fitness is -1.03 ± 0.42. Then QGEKVEGLQAQALYPWRAKKDNHLNFNKNDVITVLEQQDMWWFGEVQGQKGWMPKSYVKLISG [F53M], with -0.543 ± 0.47. Then QGEKVEGLQAQALYPWRAKKDNHLNFNKNDVITVLEQQDMWWFGEVQGQKGWYPKSYVKLISG [F53Y], with -0.666 ± 0.42. QGEKVEGLQAQALYPWRAKKDNHLNFNKNDVITVLEQQDMWWFGEVQGQKGWGPKSYVKLISG [F53G]: the abundance fitness was -0.569 ± 0.29. Then QGEKVEGLQAQALYPWRAKKDNHLNFNKNDVITVLEQQDMWWFGEVQGQKGWRPKSYVKLISG [F53R], with -0.951 ± 0.23; and QGEKVEGLQAQALYPWRAKKDNHLNFNKNDVITVLEQQDMWWFGEVQGQKGWHPKSYVKLISG [F53H], with -0.709 ± 0.49.
